Assay [1] concerns the target T1, mouse PD1 (mouse, UniProt Q02242 25-288).
T1 sequence (looked up): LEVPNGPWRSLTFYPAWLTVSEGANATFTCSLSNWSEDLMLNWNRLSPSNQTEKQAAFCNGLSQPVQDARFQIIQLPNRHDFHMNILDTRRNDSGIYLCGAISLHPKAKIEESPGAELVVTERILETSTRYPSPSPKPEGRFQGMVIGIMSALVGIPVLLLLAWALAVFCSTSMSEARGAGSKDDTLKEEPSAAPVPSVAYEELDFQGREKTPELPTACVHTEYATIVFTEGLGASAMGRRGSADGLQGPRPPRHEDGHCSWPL
Kind of assay: cell-based or functional assay.

The target of another assay is T2, mouse CD20 (mouse, UniProt P19437 1-291).
T2 construct: whole, on cells; also called mCD20; murine CD20
T2 sequence (looked up): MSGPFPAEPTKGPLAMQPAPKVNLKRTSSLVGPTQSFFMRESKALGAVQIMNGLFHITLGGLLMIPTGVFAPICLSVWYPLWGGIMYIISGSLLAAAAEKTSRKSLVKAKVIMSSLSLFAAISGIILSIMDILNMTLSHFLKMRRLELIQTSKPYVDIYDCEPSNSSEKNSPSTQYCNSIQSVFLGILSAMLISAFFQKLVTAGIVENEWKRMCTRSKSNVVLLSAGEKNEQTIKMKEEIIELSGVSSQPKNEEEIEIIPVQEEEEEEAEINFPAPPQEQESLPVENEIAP
Kind of assay: flow cytometry on MC38/mCD20 cells. The procedure:
(§1) Cells (HEK 293, MC38 over-expressing mCD20 or Jurkat over-expressing mPD1) were resuspended in FACS wash (PBS with 1% FBS) at 1×10⁸ cells/mL. The staining was performed in 1×10⁵ cells per well. The antibodies were diluted with a ratio of 1:5 from a starting concentration of 1.3×10⁻⁷ M. The diluted antibodies were then added into the wells containing cells. Cells were stained for 30 min at 2-8° C. and washed twice with FACS wash buffer. APC-conjugated goat anti-human IgG (Jackson Immuno Research, 109-607-003, 1:400) was added to stain the cells for 30 min at 2-8° C. Following washing, cells were fixed in 2% paraformaldehyde for 30 min at 2-8° C. After two washes, stained cells were analyzed using BD LSRFortessa™ FACS instrument. The results were analyzed by FlowJo. FSC/SSC gates were used to select mononuclear cells.
For orientation: Flow cytometry measures light scatter and fluorescence of single cells or particles in a stream.

Assay [2] concerns the target T1, mouse PD1. Kind of assay: flow cytometry on Jurkat/mPD1 cells. The procedure:
as §1

From patent US20240425609A1 (Regeneron, published 2024) come the findings set out here.

B1: 1 + 2 m20_mPL_1 (bispecific antibody, human IgG1, kappa)
heavy: QVQLQQPGAELVRPGTSVKLSCKASGYTFTSYWMHWIKQRPGQGLEWIGVIDPSDNYTKYNQKFKGKATLTVDTSSSTAYMQLSSLTSEDSAVYFCAREGYYGSSPWFAYWGQGTLVTVSSASTKGPSVFPLAPSSKSTSGGTAALGCLVKDYFPEPVTVSWNSGALTSGVHTFPAVLQSSGLYSLSSVVTVPSSSLGTQTYICNVNHKPSNTKVDKKVEPKSCDKTHTCPPCPAPEAEGAPSVFLFPPKPKDTLMISRTPEVTCVVVDVSHEDPEVKFNWYVDGVEVHNAKTKPREEQYNSTYRVVSVLTVLHQDWLNGKEYKCKVSNKALPSSIEKTISKAKGQPREPQVCTLPPSRDELTKNQVSLSCAVKGFYPSDIAVEWESNGQPENNYKTTPPVLDSDGSFFLVSKLTVDKSRWQQGNVFSCSVMHEALHNRFTQKSLSLSPGK
light: QIVMSQSPAILSASPGEKVTMTCRARSSVSYIHWYQQKPGSSPKPWIYATSNLASGVPGRFSGSGSGTSYSLTITRVEAEDAATYYCQQWSSKPPTFGGGTKLEIKRTVAAPSVFIFPPSDEQLKSGTASVVCLLNNFYPREAKVQWKVDNALQSGNSQESVTEQDSKDSTYSLSSTLTLSKADYEKHKVYACEVTHQGLSSPVTKSFNRGEC
chain: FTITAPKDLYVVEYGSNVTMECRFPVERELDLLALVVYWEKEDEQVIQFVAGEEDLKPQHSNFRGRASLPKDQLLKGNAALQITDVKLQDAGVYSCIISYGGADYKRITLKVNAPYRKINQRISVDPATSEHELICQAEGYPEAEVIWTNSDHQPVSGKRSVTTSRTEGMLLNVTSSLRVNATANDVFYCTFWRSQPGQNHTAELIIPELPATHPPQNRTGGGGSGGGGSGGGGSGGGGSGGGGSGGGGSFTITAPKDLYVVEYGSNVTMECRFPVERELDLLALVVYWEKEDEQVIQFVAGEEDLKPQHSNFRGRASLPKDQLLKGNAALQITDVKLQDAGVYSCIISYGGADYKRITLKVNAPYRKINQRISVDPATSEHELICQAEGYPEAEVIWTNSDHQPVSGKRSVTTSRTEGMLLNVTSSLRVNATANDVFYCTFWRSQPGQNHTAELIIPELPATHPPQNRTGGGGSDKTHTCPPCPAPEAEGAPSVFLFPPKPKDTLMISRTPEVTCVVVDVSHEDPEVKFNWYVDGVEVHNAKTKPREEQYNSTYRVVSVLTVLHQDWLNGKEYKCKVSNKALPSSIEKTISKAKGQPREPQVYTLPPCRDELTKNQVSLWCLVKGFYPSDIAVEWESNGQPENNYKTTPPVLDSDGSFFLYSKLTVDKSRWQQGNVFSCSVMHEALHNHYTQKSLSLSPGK
As a reminder, the EC50 is the concentration at which the effect is half-maximal. On to B1, for which, in the assay with mouse PD1 [1], the “Max % inhibition, AP1-luciferase bioassay, 2.5 nM CD3 bsAb” value was found to be 11%. Moreover, the “Max MFI” value with mouse CD20 amounted to 20300 MFI. Further, in the assay with mouse PD1 [2], the EC50 worked out at 22.4 nM and the “Max MFI” value stood at 16700 MFI.

B2: 2 + 2 m20_mPL_3 (bispecific antibody, human IgG1, kappa)
heavy: QVQLQQPGAELVRPGTSVKLSCKASGYTFTSYWMHWIKQRPGQGLEWIGVIDPSDNYTKYNQKFKGKATLTVDTSSSTAYMQLSSLTSEDSAVYFCAREGYYGSSPWFAYWGQGTLVTVSSASTKGPSVFPLAPSSKSTSGGTAALGCLVKDYFPEPVTVSWNSGALTSGVHTFPAVLQSSGLYSLSSVVTVPSSSLGTQTYICNVNHKPSNTKVDKKVEPKSCDKTHTCPPCPAPEAEGAPSVFLFPPKPKDTLMISRTPEVTCVVVDVSHEDPEVKFNWYVDGVEVHNAKTKPREEQYNSTYRVVSVLTVLHQDWLNGKEYKCKVSNKALPSSIEKTISKAKGQPREPQVCTLPPSRDELTKNQVSLSCAVKGFYPSDIAVEWESNGQPENNYKTTPPVLDSDGSFFLVSKLTVDKSRWQQGNVFSCSVMHEALHNRFTQKSLSLSPGKGGGGSGGGGSGGGGSQVQLQQPGAELVRPGTSVKLSCKASGYTFTSYWMHWIKQRPGQGLEWIGVIDPSDNYTKYNQKFKGKATLTVDTSSSTAYMQLSSLTSEDSAVYFCAREGYYGSSPWFAYWGQGTLVTVSSASTKGPSVFPLAPSSKSTSGGTAALGCLVKDYFPEPVTVSWNSGALTSGVHTFPAVLQSSGLYSLSSVVTVPSSSLGTQTYICNVNHKPSNTKVDKKVEPKSCD
chain: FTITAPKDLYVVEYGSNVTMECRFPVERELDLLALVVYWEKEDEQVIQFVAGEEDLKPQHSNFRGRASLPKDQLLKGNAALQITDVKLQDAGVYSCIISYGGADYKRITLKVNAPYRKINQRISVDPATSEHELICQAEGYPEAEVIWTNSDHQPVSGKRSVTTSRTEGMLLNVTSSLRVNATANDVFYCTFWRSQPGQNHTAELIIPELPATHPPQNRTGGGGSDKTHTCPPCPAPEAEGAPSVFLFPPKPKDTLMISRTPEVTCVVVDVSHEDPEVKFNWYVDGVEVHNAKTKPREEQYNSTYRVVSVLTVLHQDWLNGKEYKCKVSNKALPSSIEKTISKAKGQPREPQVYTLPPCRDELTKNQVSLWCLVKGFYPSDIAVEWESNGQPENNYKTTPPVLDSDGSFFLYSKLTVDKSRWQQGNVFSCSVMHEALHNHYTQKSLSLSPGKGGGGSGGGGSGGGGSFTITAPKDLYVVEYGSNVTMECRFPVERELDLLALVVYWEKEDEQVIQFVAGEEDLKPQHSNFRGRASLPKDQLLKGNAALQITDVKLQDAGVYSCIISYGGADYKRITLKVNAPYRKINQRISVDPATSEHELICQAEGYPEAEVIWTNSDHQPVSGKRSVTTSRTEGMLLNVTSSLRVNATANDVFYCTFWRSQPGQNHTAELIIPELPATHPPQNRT
light: QIVMSQSPAILSASPGEKVTMTCRARSSVSYIHWYQQKPGSSPKPWIYATSNLASGVPGRFSGSGSGTSYSLTITRVEAEDAATYYCQQWSSKPPTFGGGTKLEIKRTVAAPSVFIFPPSDEQLKSGTASVVCLLNNFYPREAKVQWKVDNALQSGNSQESVTEQDSKDSTYSLSSTLTLSKADYEKHKVYACEVTHQGLSSPVTKSFNRGEC
B2: in the assay with mouse PD1 [1], the “IC50 (M), AP1-luciferase bioassay, 2.5 nM CD3 bsAb” value is 6.5e-11 M and the “Max % inhibition, AP1-luciferase bioassay, 2.5 nM CD3 bsAb” value was found to be 33%. In the assay with mouse CD20, it took 8.42 nM to reach a half-maximal effect (EC50) and the “Max MFI” value was 35300 MFI. In the assay with mouse PD1 [2], the EC50 is 6.31 nM and the “Max MFI” value is 6980 MFI.
